This data set in a line: protein stability index of a GFP-peptide fusion (GPS, HEK-293T) (PSI 1-6); higher = more stable. The note with it: c terminus: a fixed tail appended.

The results in this text go back to the supplement of paper PMC10567573.

± gives the standard deviation.
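Note: 24-mer peptide tiles fused after GFP, lentivirally expressed, FACS-sorted into six equal bins by GFP/DsRed ratio, decoded by Illumina sequencing, PSI is the read-weighted mean bin number.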

With KAVKDLVVLLFETALLSSGFSLED [HSP90AB1], the protein stability index by setting is: (treatment: DMSO) 2.92 ± 0.17; (treatment: MLN4924 1 uM, 8 h) 2.88 ± 0.16.
For KDVRRHLVVHTGCKDFLCQFCAQR [PLAGL1], in that order: 3.44 ± 0.08 and 3.55 ± 0.21.
For KDYYPINESLASLPLRVSFCPLSL [CLPTM1], in that order: 2.16 ± 0.28 and 2.15 ± 0.096.
For KERDLRDVGDWRKNIEEKSGMEGR [TNNI2], in that order: 5.07 ± 0.25 and 5.15 ± 0.3.
Turning to KERILLVTDKTLLICKYDFIMLSC [TPRG1], the protein stability index is, setting by setting: (treatment: DMSO) 3.06 ± 0.42; (treatment: MLN4924 1 uM, 8 h) 2.61 ± 0.31.
Take KERQKKDNHNLIERRRRFNINDRI [TFE3]: the protein stability index is, setting by setting: (treatment: DMSO) 3.95 ± 0.36; (treatment: MLN4924 1 uM, 8 h) 4.08 ± 0.14.
Regarding KFIKPWESPDEMELDELLKEISRK [PTPRD], the protein stability index by setting is: (treatment: DMSO) 2.32 ± 0.41; (treatment: MLN4924 1 uM, 8 h) 2.76 ± 0.38.
On the same counts, the results for KGAILTTMLATRNFSAAKSLLNKK [CAMK2B] are 2.91 ± 0.18 and 3.04 ± 0.24.
For KHSSTSSRIAKGGVDHTKMSLHGA [BTBD10], in that order: 3.66 ± 0.19 and 3.79 ± 0.19.
For KHWVYVKRGGNCPAPAPLVPQDPD [ZBTB22], the protein stability index runs as follows: (treatment: DMSO) 3.32 ± 0.48; (treatment: MLN4924 1 uM, 8 h) 3.56 ± 0.43.
For KIASLLGLLSKTAGFSPDCIMDDA [INTS4], in that order: 2.57 ± 0.58 and 2.19 ± 0.55.
For KITKVMDVRLDREHRVAGIFPRLS [CLPTM1], the protein stability index by setting is: (treatment: DMSO) 2.69 ± 0.17; (treatment: MLN4924 1 uM, 8 h) 2.7 ± 0.36.
For KKAEQKKKEKIIEDKTFGLKNKKG [ZC3H15], in that order: 4.8 ± 0.31 and 4.92 ± 0.1.
Take KKAPQPAKPRLAERMTTREKKVLE [HDAC6]: the protein stability index is, setting by setting: (treatment: DMSO) 4.58 ± 0.18; (treatment: MLN4924 1 uM, 8 h) 4.81 ± 0.39.
Sequence KKIYEAKRFTDAGFEHYDLFFIDG [CDC14A] came in with a protein stability index (treatment: DMSO) of 2.36 ± 0.29 and a protein stability index (treatment: MLN4924 1 uM, 8 h) of 2.34 ± 0.23.
For KKLHEEELRDLQVSVESQQVQQVE [PRPH], in that order: 4.13 ± 0.62 and 4.2 ± 0.13.
Consider KKPPVTFAEKGELRKSIFSESRKP [TRIM29], for which the protein stability index runs as follows: (treatment: DMSO) 4.13 ± 0.23; (treatment: MLN4924 1 uM, 8 h) 4.19 ± 0.19.
For KKRMRYFDPLRNEYFFDRNRPSFD [KCNA1], the protein stability index runs as follows: (treatment: DMSO) 2.47 ± 0.44; (treatment: MLN4924 1 uM, 8 h) 2.83 ± 0.19.
KKTGKSSTTALGDKQRKANESKGT [ELOA2] had a protein stability index (treatment: DMSO) of 5.26 ± 0.36 and a protein stability index (treatment: MLN4924 1 uM, 8 h) of 5.22 ± 0.17.
Sequence KLEERFMTLAANHELMLRFKDEYK [CCDC89] had a protein stability index (treatment: DMSO) of 2.99 ± 0.28 and a protein stability index (treatment: MLN4924 1 uM, 8 h) of 2.99 ± 0.43.
On the same counts, the results for KLPRKVLQHVSEPQAHQESTRGAA [SPACA9] are 4.59 ± 0.13 and 4.76 ± 0.17.
Turning to KLWDLRTTKCVRQYEGHVNEYAYL [DCAF4], the protein stability index came to 2.38 ± 0.21 (treatment: DMSO) and 2.27 ± 0.22 (treatment: MLN4924 1 uM, 8 h).
On the same counts, the results for KNHEEEMKEFSNQVVGQVNVEMDA [KRT13] are 5.54 ± 0.079 and 5.44 ± 0.31.
On the same counts, the results for KNSMENGRPPDPADWAVMDVVNYF [SAMD13] are 3.3 ± 0.26 and 3.28 ± 0.2.
For KNSTMVNSEDIFLLLCLKVDNHFN [TRIM43], in that order: 2.98 ± 0.57 and 2.84 ± 0.51.
Regarding KPPKPPDKPLMPYMRYSRKVWDQV [SMARCE1], the protein stability index by setting is: (treatment: DMSO) 2.08 ± 0.33; (treatment: MLN4924 1 uM, 8 h) 2.53 ± 0.36.
KPPPRKHTRSWAVLKLLLLLLLFG [LRRC59] came in with a protein stability index (treatment: DMSO) of 2.09 ± 0.3 and a protein stability index (treatment: MLN4924 1 uM, 8 h) of 2.02 ± 0.26.
On to KPPQNPVDTYDVQVTAPGAPPLQA [TNXB], for which the protein stability index turned out to be 4.84 ± 0.35 (treatment: DMSO) and 4.46 ± 0.3 (treatment: MLN4924 1 uM, 8 h).
For KQRLMENTEDWRPRPGTGQSRSFR [PDLIM7], in that order: 4.18 ± 0.2 and 4.418 ± 0.008.
